Measured values taken from the DeepSol protein solubility set.

Assay: soluble on expression in E. coli; label from the status in PepcDB or PDB records

Row | Sequence | soluble on expression in E. coli
1 | MRDYATTAAGFDLQRTAAATLSGTLQALNACVECCDRHALPGRIALFWEGKDGSRASYTFSELKALSGRFANFLQAQGVRPGDCVAGLLPRTPELLVTILGAWRLGAVYQPLFTAFGPKAIEHRVATAGSKVLVTDAANRDKLDELADPPLAVTVGGPKGQGIRRGDFSFWAELERYPAEFEPVPRSGEDPFLMMFTSGTTGLAKPVPVPLKAILAFVGYLREAVDLRPEDAFWNLADPGWAYGLYYAVAGPLAMGHPTTFYEGPFSVESTCRIIRDYGITNLAGSPTAYRLLMAAGAAAETALKGRLRAVSSAGEPLTPEVIRWFADRLGTTIHDHYGQTELGMVLCNHHALAHPVRVGAAGFACPGHRVVVLDDDLNELPPGQPGILALDRRRSPLMWFPGYQGLETAAFVGDYYLSGDTVELNEDGSISFVGRADDVITTSGYRVGPFDVESALIEHPAVMEAAVIGKPDPERTELVKAFVVLCAGHRPTPELADALQRYVRQRLSAHAYPREIEFLEELPKTPSGKIQRFLLRNQEIARQREAAPRAAAAN | not soluble
2 | ATDATSLATDKDKLSYSIGADLGKNFKNQGIDVNPEAMAKGMQDAMSGAQLALTEQQMKDVLNKFQKDLMAKRTAEFNKKADENKVKGEAFLTENKNKPGVVVLPSGLQYKVINSGNGVKPGKSDTVTVEYTGRLIDGTVFDSTEKTGKPATFQVSQVIPGWTEALQLMPAGSTWEIYVPSGLAYGPRSVGGPIGPNETLIFKIHLISVKKSS | soluble
3 | MSTPRIEHYTTDVHAHWEGIHPQDWAEVDLIGYENAMDKMYRTLCENPDAALVQVGHRSKLLNDHGSDYRFNGKFTSEQTKPERSHHDYNHFGKLMKWEGDRWYKYDFEVEVTDHTRSE | not soluble
4 | MYTLREPYKGYEVKVTLLPIEDIVIPPIQRDLSETLIKKLMLSIEKVGFVDPILVVEGEEGKYEVINGQHRLKAAELLGIREIPAIILPQETKDYIISLNVEKAPNLKDKAHQAYEIFMKYLKENPEMEEVELENMVEEPYFLTVGFITDRFGEKRFPAYAFEKVLKKVDEFLGLPLEEAERERENRANVLRDVREVMEEKYQELGLTNALHKEAIISKAFQSVYGKRVRKVDDDFYTVFEKIKEAIPRVSFTEEELESF | soluble
5 | MSLIRSKYAFLQKLTRDLKMKSINIGEELEGATPPSVFIGSWNYPKVYAGPMIAPVQEEVEIFDSPERWIPERKTQEEIIDYRLNLVRGKQLVGVRDLDNHLVEKLQEISLSSGAIESEAQFRRKPRGLFFSEEQTPHGPSAVLENFEIENVKWDRELERAYHDTDLRAREAIVELHRKGTPFSAVQKALSVGALGEGKRRKLVPTRWSITACDSTLADHFLERVLEYEPIDTFRVHEFESLKNHYLILLTPSEWQYEWMEAFMKRDGRAMIFSDHETGKGKREYSRVGGCYYSAKMAVLDALDREEKQAGAIILREAYPGYVPLGVFNVRENVKNAMDTEPTMFNDLRGALEFIDSKLKLGLEAFRVRSNLLKELEVSRQTTLDSFFREGHHHHHH | not soluble
6 | MGSDKIHHHHHHMKSKNLSPYIKYIELDRVRVPSFSRYPFHLPAVRNLDTLALHPKVTFLVGENGSGKSTILEAIAVAYGFNAEGGTKNFNFSSRRTHSDLSDYVKVVKGTRTPRNGFFLRAESFYNFASNLDDLDSEMAFGPSLIDSYGGRSLHEQSHGESFFAVFLNRFSGDGVYILDEPEAALSPSRQMSMLSRMHELVGEGAQFIIATHSPIIMAYPDALIYQIADDIEQVGYQETEHYRITRAFLNHPQKMLKLLLE | not soluble
7 | MGSDKIHHHHHHMPLNMNRDVFITAAVTGSGGTQDKSPHVPRSPKEIAASAIEAARAGAAVVHCHVRDPETGAPSRRLELYRELTDRIRDSEVDVVLNLTAGMGGDIVFGSTEAPLPVNEAATDMIGATERMAHIAECLPEICTLDCGTMNFAEADYVMTNTPGMLRAMGQMMTDLGVKPEIEAFDTGHLWFAKQLVKEGILEPNALVQLCMGVPWGAPNDLNTFMAMVNNVPSDWTWSAFSLGRDQMPFAAASVLAGGNVRVGLEDNLFLDKGVLATNAQLVERAVSVIEGMGAKIVGPDAVREKLGLTKRAPVAA | not soluble
8 | SLARMSRRSRGAAGAQSVVKPETPMAQVLHQFNYCPCQYLEQNWIVPKQPWLLNLDGWRDNPNFNLWCLEEWALAPVPETAFNKPHHSLALLPPDALSTLMLTIGGALHSFAMRQVVLKKPKQCLNNVFGLDIARFLIQQGPMLLSQWPKGWQKALPDVMKEDEVERHMLKQGYAWMKFILASSSHDILLRWQFKLDQSLSQVKENTSWLVEEQRDLAYRLTKKIAKQVIPQWFHLLK | soluble
9 | ALESARAGYWEWNVENGTILIDRQWAVISGYNSADFDMLTMEQWRELCHPADLGVVTKSIEELLDGSMERLELELRVRHKNGEWIRVLDCGKVTGRSKNGKPSCLTGSRQALASLHDK | soluble
10 | MFMGKLPHQADLIGALIEAAGANGIRAGAIQVIGALQGAKLGFYDQWSKSYRELPFAKPLEIVSGLGNISLRDGRPFVHLHLSISDEEGKVFGGHALEGCTIFAAEYAIMPLPGSAPVRVFDETTGLFLWEREQYPASGQKGLSPELERALLNPLEHHHHHH | soluble
11 | MKLPVPSPMRLAVTHEGRSIIYIPSPEYAVASGRLEPAWLEVFYNPAMEFNRDVSVVAASALRRTGLLTRSGVAFDAHAGVGVRGVRYAVEAGYVKVIMNDINPKASMLAALNARANGLEPGSYMIFNKESNSLMFHLSRERPTPVSLIDIDPYGSPAPFVDAALALSGKGTVVAMTATDLAVLEGGKARAAVRRYMLRSVSKTPVSKETGLRVLLGYVARVAAAHDKAVKPLLAYYADHYYRVYVAVERGARRSDSMLEENLGRLVYCPETGVALALSYAEDPASACGGSYVVAADPAWIGSLGDQAFLEAMLNIAVEAVWLGTRPRVEKLLNTLHGEAPLSPRSIYVSLTSVASKARVNTPKKSKVVELLRSMGYRAVATHFSGEGVRTDAPWGEVLEAVVKLGSSG | soluble
12 | MHQLWTYDPAAGTVEVGAGTTNEGLVDGPGEEAWFAQPSGLAATADRLWLADSETSALRWVDLDGAVHTAVGTGLFDFGHRDGDAEQALLQHPLGVTALPDGSVAVSDTYNHALRRYDPATGEVTTLATDLREPSDAVLVGDDIVVVESARHRLTRLRLPEEAVRVASVAHRTQRAATEVAPGRLQLDVIFQAPAGQKLDTRYGPSTRLLVSSTPPELLLNGEGADPDLSRTLELNPAIPEGVLHVSAMAASCDDDPANEYPACHVHQQDWGVPVRLTEGGADRLPLVLAGMDALEHHHHHH | not soluble
13 | MGSDKIHHHHHHMQSGMYVSLSSQRALDKRLTTIADNMANVNTVGFRGTEVKFDEVVSRTGNDQNAKIAFVSQGNDYLNTQSGEMLQTGGTLDFAVKGDAWFSIDTPAGPALTRDGRFTMTSTGQLVSVRGYSVLDAGGGPIQLDPNGGEPHVGADGTINQNGRQISQIGLFTADISKGYLRTENSGVITTDRPQAVVDDATIGVMQGYVEQSNVNGISQMTQLIQVSRAFESISASMSQTENSMSETIKTLGGSK | not soluble
14 | RTEDLPKAVVFLEPQWYSVLEKDSVTLKCQGAYSPEDNSTQWFHNESLISSQASSYFIDAATVNDSGEYRCQTNLSTLSDPVQLEVHIGWLLLQAPRWVFKEEDPIHLRCHSWKNTALHKVTYLQNGKDRKYFHHNSDFHIPKATLKDSGSYFCRGLVGSKNVSSETVNITITQGL | soluble
15 | MMKGSKSYTEYSSSFSTDEFGYDQNRSNSYNFNGPCINTDPEMKRKKRVASYNLFATEEKLKSTLKNSFKWIKNKFSGDDNSIRYNV | not soluble
16 | MGLLKALLGFDRRDIETLARSNEENRRRIEALEAALARLEERISSISQALGRDARSTESLQGVEKEGGRETEYEGHNGTVEEGMLEDEGIIISHLEKGDATPSELIRDTGLSKNRVYGVLKRLVERGIVEKRRDGRRVVYSLRRVEAQADAPG | not soluble
17 | MIQPVAVIGAGPFGLSTAAHLRARGIPVRVFGDPMVSWRDHMPAGMLLKSTPAASTIDAPQRGHRLVDYCDAAGIARLVTDEDIIPVETFIGYGRWFQEQLVPGLEQVRVVSVDRKAGGGFELKLDSGELFTARAVVVATGLSGLAHLPAELAGAAVDGPTPTGPVSHSSQHHDLSRFAGKELVVVGAGQSALETAALAAEAGAHVRVVSRGRGRVSFGAPPWKQPRLRPESPFGRAWSLWALSYYPHPYRYLPAEARHYLVRRVLGPLGAWWLRDRFEGKVEVREVASVARAHASEGSPVLTLRTHGGRTQELPADHVIAATGYRVDIAAMDFLGHELRTELVVSRGTPKLGAGFRSSVPGLYFTGLPAAASYGPVMRFVCGTEFASPRLAKHLAGAHGLEHHHHHH | not soluble
